B1: 6NMW (parent)
chain: QGDIVVALYPYDGIHPDDLSFKKGEKMKVLEEHGEWWKAKSLLTKKEGFIPSNYVAKLN

Variants of: B1
Experiment: folding stability dG (cDNA display proteolysis); higher = more stable
Conditions: PBS, room temperature

Variant | folding stability dG
K28M | 4.6 kcal/mol
K28S | 2.77 kcal/mol
K28E | 4.07 kcal/mol
K28R | 4.26 kcal/mol
L43M | 3.25 kcal/mol
P16F | 2.73 kcal/mol
P16K | 3.4 kcal/mol
I50D | -0.59 kcal/mol
I50A | 0.132 kcal/mol
G48A | -0.512 kcal/mol
K23D | 1.3 kcal/mol
V29W | -0.028 kcal/mol
V29M | 1.93 kcal/mol
V29Q | 0.108 kcal/mol
N53M | 3.07 kcal/mol
N53A | 4.07 kcal/mol
A7T | 1.07 kcal/mol
G2P | 2.98 kcal/mol
G2Q | 3.21 kcal/mol
G2R | 3 kcal/mol
G2I | 3.12 kcal/mol
G13Q | 2.01 kcal/mol
G13E | 1.2 kcal/mol
V6R | 1.9 kcal/mol

Variant | folding stability dG
V6A | 1.29 kcal/mol
V6G | 0.392 kcal/mol
V6D | -0.164 kcal/mol
V6Y | 3.49 kcal/mol
K38E | 1.49 kcal/mol
K38A | 1.72 kcal/mol
F49N | 3.4 kcal/mol
F49I | 2.63 kcal/mol
F49W | 4.88 kcal/mol
F49G | 0.912 kcal/mol
F49R | 3.83 kcal/mol
T44A | 0.515 kcal/mol
V5L | 1.66 kcal/mol
V5C | 3.86 kcal/mol
D3Q | 4.27 kcal/mol
D3K | 4.12 kcal/mol
D3T | 4.52 kcal/mol
G34P | 1.5 kcal/mol
G34A | 2.02 kcal/mol
G34Y | 1.45 kcal/mol
G34E | 1.86 kcal/mol
G34V | 1.41 kcal/mol
G34L | 1.52 kcal/mol
P10V | 2.27 kcal/mol

Variant | folding stability dG
P10A | 4.23 kcal/mol
P10N | 4.84 kcal/mol
P10R | 4.08 kcal/mol
V55P | -0.707 kcal/mol
V55Y | 0.703 kcal/mol
E31Y | 3.07 kcal/mol
E31H | 2.63 kcal/mol
E31W | 3.2 kcal/mol
E31P | -0.549 kcal/mol
E31A | 3.46 kcal/mol
E31F | 3.14 kcal/mol
L19P | -0.243 kcal/mol
L19W | 0.23 kcal/mol
L19D | -0.824 kcal/mol
S52K | 4.84 kcal/mol
S52M | 3.52 kcal/mol
S52I | 2.91 kcal/mol
N59G | 4.04 kcal/mol
N59D | 3.82 kcal/mol
N59R | 3.22 kcal/mol
D12H | 4.08 kcal/mol
D12M | 3.84 kcal/mol
D12S | 3.78 kcal/mol
D17F | 3.71 kcal/mol

Variant | folding stability dG
D17H | 3.78 kcal/mol
D17A | 3.37 kcal/mol
D17T | 3.68 kcal/mol
D18S | 3.94 kcal/mol
D18I | 2.69 kcal/mol
D18P | 0.221 kcal/mol
H33I | 3.23 kcal/mol
H33A | 3.01 kcal/mol
H33D | 2.75 kcal/mol
Y11E | -0.944 kcal/mol
Y11A | -0.375 kcal/mol
Y11S | 0.369 kcal/mol
P51C | 2.34 kcal/mol
P51S | 1.19 kcal/mol
P51M | 1.59 kcal/mol
P51N | 2.28 kcal/mol
P51H | 1.83 kcal/mol
Y54G | 0.76 kcal/mol
E47R | 2.28 kcal/mol
E47V | 4.3 kcal/mol
E47W | 2.14 kcal/mol
E47A | 2.77 kcal/mol
E47Y | 2.25 kcal/mol
L8D | -0.146 kcal/mol

Variant | folding stability dG
L8G | 0.062 kcal/mol
L8A | 0.801 kcal/mol
F21W | -0.416 kcal/mol
W36E | 1.14 kcal/mol
E25V | -0.121 kcal/mol
E25W | 1.22 kcal/mol
E25N | 0.344 kcal/mol
E25L | -0.25 kcal/mol
E25M | 0.74 kcal/mol
E25Q | 0.918 kcal/mol
S20A | 2.64 kcal/mol
S20Y | 1.22 kcal/mol
S20F | 1.18 kcal/mol
K46A | 3.05 kcal/mol
K46N | 3.02 kcal/mol
Y9R | 4.07 kcal/mol
Y9K | 3.61 kcal/mol
Y9S | 1.95 kcal/mol
E35C | 4.75 kcal/mol
E35K | 3.94 kcal/mol
E35H | 4.61 kcal/mol
E35W | 4.11 kcal/mol
M27H | -0.396 kcal/mol
M27Y | -0.162 kcal/mol

Variant | folding stability dG
K57R | 4.37 kcal/mol
L42R | 0.165 kcal/mol
L42E | 1.82 kcal/mol
L42V | 1.88 kcal/mol
L42A | 0.615 kcal/mol
I4E | 1.53 kcal/mol
I4D | 1.12 kcal/mol
I4V | 3.08 kcal/mol
I4T | 2.35 kcal/mol
A39S | 0.729 kcal/mol
K26E | 2.52 kcal/mol
K26G | 1.11 kcal/mol
K26M | 4.51 kcal/mol
H15D | 2.54 kcal/mol
H15K | 3.48 kcal/mol
H15S | 3.26 kcal/mol
H15I | 1.63 kcal/mol
H15N | 3.65 kcal/mol
L30V | 2.34 kcal/mol
L30A | 1.01 kcal/mol
G24M | 1.07 kcal/mol
G24Q | 0.576 kcal/mol
G24N | 2.19 kcal/mol
G24S | 1.3 kcal/mol

Variant | folding stability dG
G24T | 0.282 kcal/mol
S41F | -0.464 kcal/mol
S41G | -0.006 kcal/mol
L58N | 1.86 kcal/mol
L58M | 3.45 kcal/mol
L58R | 1.73 kcal/mol
K45F | 4.45 kcal/mol
K45E | 4.09 kcal/mol
K45Q | 4.25 kcal/mol
K45P | 0.596 kcal/mol
K45H | 4.6 kcal/mol
K45Y | 3.97 kcal/mol
K22L | 3.21 kcal/mol
K22T | 3.15 kcal/mol
K22W | 1.45 kcal/mol
W37K | 3.8 kcal/mol
E32Q | 4.09 kcal/mol
E32L | 4.21 kcal/mol
E32V | 4.48 kcal/mol
E32W | 3.48 kcal/mol
A56W | 2.92 kcal/mol
A56S | 3.31 kcal/mol
A56T | 3.8 kcal/mol
